Experimental data published in PMC12914646 (ACS infectious diseases, 2020).

B1: fluorophosphonate-binding hydrolase F (FphF), apo form (enzyme, Staphylococcus aureus, UniProt Q2FUY3 2-253, looked up)
chain: AYISLNYHSPTIGMHQNLTVILPEDQSFFNSDTTVKPLKTLMLLHGLSSDETTYMRYTSIERYANEHKLAVIMPNVDHSAYANMAYGHSYYDYILEVYDYVHQIFPLSKKRDDNFIAGHSMGGYGTIKFALTQGDKFAKAVPLSAVFEAQNLMDLEWNDFSKEAIIGNLSSVKGTEHDPYYLLDKAVAEDKQIPKLLIMCGKQDFLYQDNLDFIDYLSRINVPYQFEDGPGDHDYAYWDQAIKRAITWMVND
B2: FphF with the 2-phenylpiperidine-1-carbonyl moiety of KT129 or KT130 covalently attached to Ser121 (enzyme, Staphylococcus aureus, UniProt Q2FUY3 2-253, looked up)
chain: B1 chain
modifications: 2-phenylpiperidine-1-carbonyl moiety covalently attached to the terminal side chain oxygen atom of Ser121
B3: FphF with the heptyl acyl moiety of 4-MU heptanoate covalently linked to Ser121 (enzyme, Staphylococcus aureus, UniProt Q2FUY3 2-253, looked up)
chain: B1 chain
modifications: heptyl acyl moiety covalently linked to Ser121

Target: the molecule itself
Test: crystal structure

Protein | stoichiometry N
B1 | 4
B2 | 4
B3 | 4
